Data from patent publication US20240279845A1, “METHOD FOR PREPARING A LIBRARY OF PEPTIDES OR A PEPTIDE” (ECOLE POLYTECHNIQUE FEDERALE DE LAUSANNE (EPFL), priority 2021, published 2024).

Substrate: Cc1cc(=O)oc2cc(NC(=O)[C@H](CCCNC(=N)N)NC(=O)CNC(=O)[C@H](CCC(N)=O)NC(=O)OC(C)(C)C)ccc12
Assay: Substrate KM for protease screen, FXII
Format: biochemical
Conditions: other: FXII
Procedure: Crude macrocyclic libraries (4 mM DMSO stocks in 384-well LDV plates were transferred into 1536-well microtiter OptiPlates via ADE. Applied buffered solutions were prepared by filtration through PTFE syringe filters (0.22 μm) and assays were initiated by addition of protease (4.41 μl/well) in appropriate buffer (see list below) supplemented with bovine serum albumin (BSA; 0.1% w/v) and dispensed using a CERTUS automated liquid handler. Plates were incubated for 10 min at ambient temperature before fluorogenic substrate in appropriate buffer (4.5 μl) was added using a CERTUS automated liquid handler. Plates were centrifugated (800 g, 2 min) and fluorescence intensity was measured using a PHERAstar plate reader (excitation 384 nm, emission 440 nm) in time increments of 150 s over 15 min. Slopes of fluorescence increase (m) were calculated with Microsoft Excel (vers. 16.56). Negative controls were prepared without macrocycle. An average of 12 negative controls was used to calculate residual activities using Equation I below: […]
where [S]0 is the initial substrate concentration and KM is the Michaelis-Menten constant^12 for the enzyme and substrate.

B1: FXII (Homo sapiens) (protein)
chain: VVGGLVALRGAHPYIAALYWGHSFCAGSLIAPCWVLTAAHCLQDRPAPEDLTVVLGQERRNHSCEPCQTLAVRSYRLHEAFSPVSYQHDLALLRLQEDADGSCALLSPYVQPVCLPSGAARPSETTLCQVAGWGHQFEGAEEYASFLQEAQVPFLSLERCSAPDVHGSSILPGMLCAGFLEGGTDACQGDSGGPLVCEDQAAERRLTLQGIISWGSGCGDRNKPGVYTDVAYYLAWIREHTVS
  Km: 260 ± 40 µM
